# T1: PUF4 RNA-binding domain (Saccharomyces cerevisiae, UniProt P25339 537-888)
# T1 sequence: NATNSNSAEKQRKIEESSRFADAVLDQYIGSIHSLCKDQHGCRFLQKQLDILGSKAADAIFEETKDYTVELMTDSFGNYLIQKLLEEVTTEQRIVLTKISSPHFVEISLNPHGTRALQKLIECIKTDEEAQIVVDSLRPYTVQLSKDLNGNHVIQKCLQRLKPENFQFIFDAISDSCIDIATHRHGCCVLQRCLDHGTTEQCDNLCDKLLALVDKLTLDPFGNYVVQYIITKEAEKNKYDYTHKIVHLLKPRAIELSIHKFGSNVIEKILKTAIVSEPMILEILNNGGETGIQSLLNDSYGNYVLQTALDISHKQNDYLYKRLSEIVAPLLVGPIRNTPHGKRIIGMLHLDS
# B1: Id_iii_S1_P5E.9_K5.5_C5.3_H5.1_A5.2_F5.2_T5.2_[A12C] (ssRNA)
# RNA: UCUCUUUCUUGUAAUAAAAUCUCUCUU
# B2: Id_iii_S1_P5E.8_K5.4_C5.3_[C-2A]_H5.1_A5.2_F5.1_T5.2 (ssRNA)
# RNA: UCUCUUUAUUGUAAUAUUAUAUCUCUU
# B3: Ib_S1_P5E.1_K5.1_C5.1_H5.1_[A4C]_A5.1_[A7T]_F5.1_T5.1 (ssRNA)
# RNA: UCUCUUUGUCUUUUUAUCUCUU
# B4: Id_iii_S1_P5E.8_K5.4_C5.3_[T-3A]_H5.1_A5.2_F5.1_T5.2 (ssRNA)
# RNA: UCUCUUACUUGUAAUAUUAUAUCUCUU
# B5: Id_iii_S1_P5E.8_K5.4_C5.3_H5.1_A5.2_F5.1_T5.2_[A12T] (ssRNA)
# RNA: UCUCUUUCUUGUAAUAUUAUUUCUCUU
# B6: Id_iii_S1_P5E.8_K5.4_C5.3_H5.1_A5.2_F5.1_T5.2_[A12C] (ssRNA)
# RNA: UCUCUUUCUUGUAAUAUUAUCUCUCUU
# B7: Id_iii_S1_P5E.9_K5.5_C5.3_H5.1_A5.2_F5.2_T5.2_[T11A] (ssRNA)
# RNA: UCUCUUUCUUGUAAUAAAAAAUCUCUU
# B8: Id_iii_S2_P3E.5_K3.1_C3.3_[T-3A]_H3.1_A3.1_F3.1_T3.2 (ssRNA)
# RNA: UUUGAUUAAUAUGAUAUCGUUCUUUCUACUUGUAUAUAUAUUCUUUCUCGAUAUCAUAUUAAUCUUU
# B9: Id_iii_S2_P3E.5_K3.1_C3.3_H3.1_A3.1_F3.1_T3.2_[T9A] (ssRNA)
# RNA: UUUGAUUAAUAUGAUAUCGUUCUUUCUUCUUGUAUAUAAAUUCUUUCUCGAUAUCAUAUUAAUCUUU
# B10: Id_iii_S2_P3E.7_K3.3_C3.3_[T-3G]_H3.3_A3.1_F3.1_T3.2 (ssRNA)
# RNA: UUUGAUUAAUAUGAUAUCGUUCUUUCUGCUACACUAUAUAUUCUUUCUCGAUAUCAUAUUAAUCUUU
# B11: Id_iii_S2_P3E.7_K3.3_C3.3_H3.3_A3.1_F3.1_T3.2_[A10C] (ssRNA)
# RNA: UUUGAUUAAUAUGAUAUCGUUCUUUCUUCUACACUAUAUCUUCUUUCUCGAUAUCAUAUUAAUCUUU
# B12: Id_iii_S2_P3E.7_K3.3_C3.3_[C-2G]_H3.3_A3.1_F3.1_T3.2 (ssRNA)
# RNA: UUUGAUUAAUAUGAUAUCGUUCUUUCUUGUACACUAUAUAUUCUUUCUCGAUAUCAUAUUAAUCUUU
# B13: Id_iii_S2_P3E.6_K3.2_C3.3_H3.2_A3.1_F3.1_T3.2_[A10T] (ssRNA)
# RNA: UUUGAUUAAUAUGAUAUCGUUCUUUCUUCUUAUAUAUAUUUUCUUUCUCGAUAUCAUAUUAAUCUUU
# B14: Id_iii_S2_P3E.6_K3.2_C3.3_[C-2T]_H3.2_A3.1_F3.1_T3.2 (ssRNA)
# RNA: UUUGAUUAAUAUGAUAUCGUUCUUUCUUUUUAUAUAUAUAUUCUUUCUCGAUAUCAUAUUAAUCUUU
# B15: Id_iii_S2_P3E.6_K3.2_C3.3_H3.2_A3.1_F3.1_T3.2_[T9C] (ssRNA)
# RNA: UUUGAUUAAUAUGAUAUCGUUCUUUCUUCUUAUAUAUACAUUCUUUCUCGAUAUCAUAUUAAUCUUU
# B16: Id_iii_S2_P3E.9_K3.5_C3.3_[T-1C]_H3.1_A3.2_F3.2_T3.2 (ssRNA)
# RNA: UUUGAUUAAUAUGAUAUCGUUCUUUCUUCCUGUAAAAAUAUUCUUUCUCGAUAUCAUAUUAAUCUUU
# B17: Id_iii_S2_P3E.9_K3.5_C3.3_[T-1A]_H3.1_A3.2_F3.2_T3.2 (ssRNA)
# RNA: UUUGAUUAAUAUGAUAUCGUUCUUUCUUCAUGUAAAAAUAUUCUUUCUCGAUAUCAUAUUAAUCUUU
# B18: Id_iii_S2_P3E.5_K3.1_C3.3_[C-2T]_H3.1_A3.1_F3.1_T3.2 (ssRNA)
# RNA: UUUGAUUAAUAUGAUAUCGUUCUUUCUUUUUGUAUAUAUAUUCUUUCUCGAUAUCAUAUUAAUCUUU
# B19: Id_iii_S2_P3E.6_K3.2_C3.3_[T-1C]_H3.2_A3.1_F3.1_T3.2 (ssRNA)
# RNA: UUUGAUUAAUAUGAUAUCGUUCUUUCUUCCUAUAUAUAUAUUCUUUCUCGAUAUCAUAUUAAUCUUU
# B20: Id_iii_S2_P3E.7_K3.3_C3.3_[T-1C]_H3.3_A3.1_F3.1_T3.2 (ssRNA)
# RNA: UUUGAUUAAUAUGAUAUCGUUCUUUCUUCCACACUAUAUAUUCUUUCUCGAUAUCAUAUUAAUCUUU
# B21: Id_iii_S2_P3E.9_K3.5_C3.3_H3.1_A3.2_F3.2_T3.2_[A10G] (ssRNA)
# RNA: UUUGAUUAAUAUGAUAUCGUUCUUUCUUCUUGUAAAAAUGUUCUUUCUCGAUAUCAUAUUAAUCUUU
# B22: Id_iii_S2_P3E.9_K3.5_C3.3_[T-1G]_H3.1_A3.2_F3.2_T3.2 (ssRNA)
# RNA: UUUGAUUAAUAUGAUAUCGUUCUUUCUUCGUGUAAAAAUAUUCUUUCUCGAUAUCAUAUUAAUCUUU
# B23: Id_iii_S2_P3E.5_K3.1_C3.3_H3.1_A3.1_F3.1_T3.2_[A10G] (ssRNA)
# RNA: UUUGAUUAAUAUGAUAUCGUUCUUUCUUCUUGUAUAUAUGUUCUUUCUCGAUAUCAUAUUAAUCUUU
# B24: Id_iii_S2_P3E.6_K3.2_C3.3_H3.2_A3.1_F3.1_T3.2_[T9A] (ssRNA)
# RNA: UUUGAUUAAUAUGAUAUCGUUCUUUCUUCUUAUAUAUAAAUUCUUUCUCGAUAUCAUAUUAAUCUUU
# B25: Id_iii_S2_P3E.7_K3.3_C3.3_[T-1G]_H3.3_A3.1_F3.1_T3.2 (ssRNA)
# RNA: UUUGAUUAAUAUGAUAUCGUUCUUUCUUCGACACUAUAUAUUCUUUCUCGAUAUCAUAUUAAUCUUU
# B26: Id_iii_S2_P3E.5_K3.1_C3.3_[C-2G]_H3.1_A3.1_F3.1_T3.2 (ssRNA)
# RNA: UUUGAUUAAUAUGAUAUCGUUCUUUCUUGUUGUAUAUAUAUUCUUUCUCGAUAUCAUAUUAAUCUUU
# B27: Id_iii_S2_P3E.5_K3.1_C3.3_[T-1A]_H3.1_A3.1_F3.1_T3.2 (ssRNA)
# RNA: UUUGAUUAAUAUGAUAUCGUUCUUUCUUCAUGUAUAUAUAUUCUUUCUCGAUAUCAUAUUAAUCUUU
# B28: Id_iii_S2_P3E.6_K3.2_C3.3_[T-3A]_H3.2_A3.1_F3.1_T3.2 (ssRNA)
# RNA: UUUGAUUAAUAUGAUAUCGUUCUUUCUACUUAUAUAUAUAUUCUUUCUCGAUAUCAUAUUAAUCUUU
# B29: Id_iii_S2_P3E.6_K3.2_C3.3_[T-1A]_H3.2_A3.1_F3.1_T3.2 (ssRNA)
# RNA: UUUGAUUAAUAUGAUAUCGUUCUUUCUUCAUAUAUAUAUAUUCUUUCUCGAUAUCAUAUUAAUCUUU
# B30: Id_iii_S2_P3E.8_K3.4_C3.3_[T-3A]_H3.1_A3.2_F3.1_T3.2 (ssRNA)
# RNA: UUUGAUUAAUAUGAUAUCGUUCUUUCUACUUGUAAAUAUAUUCUUUCUCGAUAUCAUAUUAAUCUUU
# B31: Id_iii_S2_P3E.7_K3.3_C3.3_[T-3A]_H3.3_A3.1_F3.1_T3.2 (ssRNA)
# RNA: UUUGAUUAAUAUGAUAUCGUUCUUUCUACUACACUAUAUAUUCUUUCUCGAUAUCAUAUUAAUCUUU
# B32: Id_iii_S2_P3E.8_K3.4_C3.3_[T-3C]_H3.1_A3.2_F3.1_T3.2 (ssRNA)
# RNA: UUUGAUUAAUAUGAUAUCGUUCUUUCUCCUUGUAAAUAUAUUCUUUCUCGAUAUCAUAUUAAUCUUU
# B33: Id_iii_S2_P3E.8_K3.4_C3.3_[C-2A]_H3.1_A3.2_F3.1_T3.2 (ssRNA)
# RNA: UUUGAUUAAUAUGAUAUCGUUCUUUCUUAUUGUAAAUAUAUUCUUUCUCGAUAUCAUAUUAAUCUUU
# B34: Id_iii_S1_P5E.8_K5.4_C5.3_[T-1C]_H5.1_A5.2_F5.1_T5.2 (ssRNA)
# RNA: UCUCUUUCCUGUAAUAUUAUAUCUCUU
# B35: Ib_S1_P5E.1_K5.1_C5.1_H5.1_[A4C]_A5.1_[A7C]_F5.1_T5.1 (ssRNA)
# RNA: UCUCUUUGUCUUCUUAUCUCUU
# B36: Ib_S1_P5E.1_K5.1_C5.1_H5.1_[A4C]_A5.1_[A7G]_F5.1_T5.1 (ssRNA)
# RNA: UCUCUUUGUCUUGUUAUCUCUU
# B37: Id_iii_S1_P5E.8_K5.4_C5.3_H5.1_A5.2_F5.1_T5.2_[T11A] (ssRNA)
# RNA: UCUCUUUCUUGUAAUAUUAAAUCUCUU
# B38: Ib_S1_P5E.1_K5.1_C5.1_H5.1_[A4T]_A5.1_[A7G]_F5.1_T5.1 (ssRNA)
# RNA: UCUCUUUGUUUUGUUAUCUCUU
# B39: Id_iii_S1_P5E.8_K5.4_C5.3_H5.1_A5.2_F5.1_T5.2_[A12G] (ssRNA)
# RNA: UCUCUUUCUUGUAAUAUUAUGUCUCUU
# B40: Id_iii_S2_P4E.5_K4.1_C4.3_[T-3C]_H4.1_A4.1_F4.1_T4.2 (ssRNA)
# RNA: UUUGAUUAAUAUGAUAUCGUUCUUUCUCCUUGUAUAUUAGUUUCUUUCUCGAUAUCAUAUUAAUCUUU
# B41: Id_iii_S2_P4E.5_K4.1_C4.3_[C-2G]_H4.1_A4.1_F4.1_T4.2 (ssRNA)
# RNA: UUUGAUUAAUAUGAUAUCGUUCUUUCUUGUUGUAUAUUAGUUUCUUUCUCGAUAUCAUAUUAAUCUUU
# B42: Id_iii_S2_P4E.5_K4.1_C4.3_[T-1C]_H4.1_A4.1_F4.1_T4.2 (ssRNA)
# RNA: UUUGAUUAAUAUGAUAUCGUUCUUUCUUCCUGUAUAUUAGUUUCUUUCUCGAUAUCAUAUUAAUCUUU
# B43: Id_iii_S2_P4E.5_K4.1_C4.3_H4.1_A4.1_F4.1_T4.2_[G10A] (ssRNA)
# RNA: UUUGAUUAAUAUGAUAUCGUUCUUUCUUCUUGUAUAUUAAUUUCUUUCUCGAUAUCAUAUUAAUCUUU
# B44: Id_iii_S2_P4E.5_K4.1_C4.3_H4.1_A4.1_F4.1_T4.2_[G10T] (ssRNA)
# RNA: UUUGAUUAAUAUGAUAUCGUUCUUUCUUCUUGUAUAUUAUUUUCUUUCUCGAUAUCAUAUUAAUCUUU
# B45: Id_iii_S2_P4E.5_K4.1_C4.3_H4.1_A4.1_F4.1_T4.2_[G10C] (ssRNA)
# RNA: UUUGAUUAAUAUGAUAUCGUUCUUUCUUCUUGUAUAUUACUUUCUUUCUCGAUAUCAUAUUAAUCUUU
# B46: Id_iii_S2_P4E.5_K4.1_C4.3_[C-2T]_H4.1_A4.1_F4.1_T4.2 (ssRNA)
# RNA: UUUGAUUAAUAUGAUAUCGUUCUUUCUUUUUGUAUAUUAGUUUCUUUCUCGAUAUCAUAUUAAUCUUU
# B47: Id_iii_S2_P4E.5_K4.1_C4.3_[T-1G]_H4.1_A4.1_F4.1_T4.2 (ssRNA)
# RNA: UUUGAUUAAUAUGAUAUCGUUCUUUCUUCGUGUAUAUUAGUUUCUUUCUCGAUAUCAUAUUAAUCUUU
# B48: Id_iii_S2_P4E.5_K4.1_C4.3_[C-2A]_H4.1_A4.1_F4.1_T4.2 (ssRNA)
# RNA: UUUGAUUAAUAUGAUAUCGUUCUUUCUUAUUGUAUAUUAGUUUCUUUCUCGAUAUCAUAUUAAUCUUU
# Target: T1, PUF4 RNA-binding domain
# Test: Mg; RNA-MaP; 20 mM Na-HEPES pH 7.4, 30 mM KOAc, 0.75 mM MgCl2, 0.1% Tween-20, 5% glycerol, 0.1 mg/mL BSA, 2 mM DTT; 25 C; 0.0125-409.6 nM protein
# Settings: tags: N-His6-TEV cleaved; C-SNAP kept, Cy3B-labelled; label: tethered on chip by stalled RNA polymerase
row,Binder,Kd
1,B1,411 nM
2,B2,9.11 nM
3,B3,113 nM
4,B4,13.7 nM
5,B5,7.29 nM
6,B6,6.29 nM
7,B7,412 nM
8,B8,1.18 nM
9,B9,3.53 nM
10,B10,156 nM
11,B11,495 nM
12,B12,0.454 nM
13,B13,43.5 nM
14,B14,111 nM
15,B15,168 nM
16,B16,11.9 nM
17,B17,28.6 nM
18,B18,1.52 nM
19,B19,28.7 nM
20,B20,321 nM
21,B21,661 nM
22,B22,32.2 nM
23,B23,2.21 nM
24,B24,321 nM

row,Binder,Kd
1,B25,430 nM
2,B26,2.14 nM
3,B27,1.7 nM
4,B28,91.2 nM
5,B29,122 nM
6,B30,3.74 nM
7,B31,213 nM
8,B32,2.54 nM
9,B33,26.3 nM
10,B34,7.32 nM
11,B35,1090 nM
12,B36,475 nM
13,B37,11.3 nM
14,B38,426 nM
15,B39,10 nM
16,B40,0.191 nM
17,B41,0.508 nM
18,B42,0.205 nM
19,B43,0.37 nM
20,B44,0.203 nM
21,B45,0.519 nM
22,B46,1.08 nM
23,B47,0.201 nM
24,B48,0.601 nM
